This note sets out measurements from patent US20200362047A1 (CRESCENDO BIOLOGICS, published 2020).

By Kd is commonly meant the equilibrium constant for the complex coming apart. Higher therefore signals lower affinity. In general, koff refers to the rate constant with which the complex falls apart. One may read the kon as the rate constant with which the complex forms. The low end stands for slow association, the high end for fast association. As a reminder, the IC50 is the point on the concentration scale where inhibition reaches its midpoint.

First the molecules themselves.
B1: Humabody VH 2.20 (VHH)
VHH: EVQLVESGGGLVKPGGSLRLSCAASGFTFSDYYMSWIRQAPGKGLEWVSHISSSGSTIDYADSVKGRFTISRDNAKNSLYLQMNSLRAEDTAVYYCAREDPRMPGTFDFDNWGQGTLVTVSS
notes: human single VH domain
B2: Humabody VH 1.16 (VHH)
VHH: EVQLVESGGGLVQPGGSLRLSCVASGFTFSNYWMMWFRQAPGKGLEWVANINQDGSEKYFVDSVEGRFTISRDNAKNSLYLQMNSLRAEDTAVYYCARGGDGYSSSHYGTDVWGQGTTVTVSS
notes: human single VH domain
B3: Humabody VH 1.71 (VHH)
VHH: EVQLVESGGGLVQPGGSLRLSCAASGFTFGNYWMIWVRQAPGKELEWLANINQNGSERYYVDSVQGRFTISRDNAKNSLYLQMNSLRAEDTAVYYCARGGADYSNSHYGMDVSGQGTTVTVSS
notes: human single VH domain
B4: Humabody VH 1.39 (VHH)
VHH: EVQLVESGGGLVQPGGSLRLSCAASGFTFSNYWMNWVRQAPGKELEWVANINQDESEKYYVDSVKGRFTVSRDNAKNSLFLQMNSLRADDTAVYYCARGGFGYGDSHFGMDVWGQGTTVTVSS
notes: human single VH domain
B5: Humabody VH 1.63 (VHH)
VHH: EVQLVESGGGLVQPGGSLSLSCAASGFTFRSFWMNWVRQAPGKEAEWVANINQDGSEKYYVDSVKGRFTISRDNAKNSLFLQMNSLRAEDTAVYYCARGGPDYGDLHYGMDVWGQGTTVTVSS
notes: human single VH domain
B6: Humabody VH 1.75 (VHH)
VHH: QVQLVESGGGLVQPGGSLRLSCAASGFTFSDYYMSWIRQAPGKGLEWVANINQDGSERYYVDSVKGRFTISRDNAKNSLYLQMSSLRAEDTAVYFCARGGEGYGVDHYGLDVSGQGTTVTVSS
notes: human single VH domain
B7: Humabody VH 1.81 (VHH)
VHH: QVQLVESGGGLVQPGGSLRLSCAATGFTLSNYWMNWVRQAPGKGLEWVANINQDGSERYYVDSVEGRFTISRDNAKSSLYLQMSNLRAEDTAVYFCARGGEGYGVDHYGLDVSGQGTTVTVSS
notes: human single VH domain
B8: 1.78-6GS-4.1 (bispecific antibody)
chain: QVQLVESGGGLVQPGGSLRLSCAATGFTLSNYWMNWVRQAPGKGLEWVANINQDGSERYYVDSVKGRFTISRDNAKNSLYLQMSSLRAEDTAVYFCARGGEGYGVDHYGLDVSGQGTTVTVSSGGGGSGGGGSGGGGSGGGGSGGGGSGGGGSEVQLVESGGGVVQPGRSLRLSCAASGFSFSGYGMHWVRQAPGKGLEWVAYISYDGSNKYYADSVKGRFTISRDNSKNTLYLQMNSLRAEDTAVYYCAKDPAWGLRLGESSSYDFDIWGQGTMVTVSS
notes: built from its printed name (1.78, 6GS linker, 4.1); not shown: His tag
B9: 1.1-6GS-1.1-6GS-1.1 (VHH)
chain: EVQLVESGGGLVQPGGSLRLSCAASGFTFSSHWMTWFRQAPGKGLEWVAHIKEDGSEKYYEDSVEGRFTVSRDNAKNSVYLQMNSLRAEDTAVYYCARGGDGYSDSHFGVDVWGQGTTVTVSSGGGGSGGGGSGGGGSGGGGSGGGGSGGGGSEVQLVESGGGLVQPGGSLRLSCAASGFTFSSHWMTWFRQAPGKGLEWVAHIKEDGSEKYYEDSVEGRFTVSRDNAKNSVYLQMNSLRAEDTAVYYCARGGDGYSDSHFGVDVWGQGTTVTVSSGGGGSGGGGSGGGGSGGGGSGGGGSGGGGSEVQLVESGGGLVQPGGSLRLSCAASGFTFSSHWMTWFRQAPGKGLEWVAHIKEDGSEKYYEDSVEGRFTVSRDNAKNSVYLQMNSLRAEDTAVYYCARGGDGYSDSHFGVDVWGQGTTVTVSS
notes: trivalent tandem VH, monospecific for CD137; also called trivalent Humabody VH 1.1; not shown: His tag
B10: 1.1-6GS-1.1 (VHH)
chain: EVQLVESGGGLVQPGGSLRLSCAASGFTFSSHWMTWFRQAPGKGLEWVAHIKEDGSEKYYEDSVEGRFTVSRDNAKNSVYLQMNSLRAEDTAVYYCARGGDGYSDSHFGVDVWGQGTTVTVSSGGGGSGGGGSGGGGSGGGGSGGGGSGGGGSEVQLVESGGGLVQPGGSLRLSCAASGFTFSSHWMTWFRQAPGKGLEWVAHIKEDGSEKYYEDSVEGRFTVSRDNAKNSVYLQMNSLRAEDTAVYYCARGGDGYSDSHFGVDVWGQGTTVTVSS
notes: bivalent tandem VH, monospecific for CD137; also called bivalent Humabody VH 1.1; not shown: His tag
B11: 4.1-6GS-1.78 (bispecific antibody)
chain: EVQLVESGGGVVQPGRSLRLSCAASGFSFSGYGMHWVRQAPGKGLEWVAYISYDGSNKYYADSVKGRFTISRDNSKNTLYLQMNSLRAEDTAVYYCAKDPAWGLRLGESSSYDFDIWGQGTMVTVSSGGGGSGGGGSGGGGSGGGGSGGGGSGGGGSQVQLVESGGGLVQPGGSLRLSCAATGFTLSNYWMNWVRQAPGKGLEWVANINQDGSERYYVDSVKGRFTISRDNAKNSLYLQMSSLRAEDTAVYFCARGGEGYGVDHYGLDVSGQGTTVTVSS
notes: built from its printed name (4.1, 6GS linker, 1.78); not shown: His tag
B12: 2.1-6GS-2.1-6GS-2.1 (VHH)
chain: EVQLVESGGGLVKPGGSLRVSCAASGFTFSDYYMSWFRQAPGKGLEWVSYISGSGDIIDYADSVKGRFTISRDNAKNSLYLQMNNLRAEDTAVYHCAREDSRLTGTTDFDNWGQGTLVTVSSGGGGSGGGGSGGGGSGGGGSGGGGSGGGGSEVQLVESGGGLVKPGGSLRVSCAASGFTFSDYYMSWFRQAPGKGLEWVSYISGSGDIIDYADSVKGRFTISRDNAKNSLYLQMNNLRAEDTAVYHCAREDSRLTGTTDFDNWGQGTLVTVSSGGGGSGGGGSGGGGSGGGGSGGGGSGGGGSEVQLVESGGGLVKPGGSLRVSCAASGFTFSDYYMSWFRQAPGKGLEWVSYISGSGDIIDYADSVKGRFTISRDNAKNSLYLQMNNLRAEDTAVYHCAREDSRLTGTTDFDNWGQGTLVTVSS
notes: trivalent tandem VH, monospecific for CD137; also called trivalent Humabody VH 2.1; not shown: His tag
B13: 2.1-6GS-2.1 (VHH)
chain: EVQLVESGGGLVKPGGSLRVSCAASGFTFSDYYMSWFRQAPGKGLEWVSYISGSGDIIDYADSVKGRFTISRDNAKNSLYLQMNNLRAEDTAVYHCAREDSRLTGTTDFDNWGQGTLVTVSSGGGGSGGGGSGGGGSGGGGSGGGGSGGGGSEVQLVESGGGLVKPGGSLRVSCAASGFTFSDYYMSWFRQAPGKGLEWVSYISGSGDIIDYADSVKGRFTISRDNAKNSLYLQMNNLRAEDTAVYHCAREDSRLTGTTDFDNWGQGTLVTVSS
notes: bivalent tandem VH, monospecific for CD137; also called bivalent Humabody VH 2.1; not shown: His tag
B14: Humabody VH 1.112 (VHH)
VHH: EVQLVESGGGLVQPGGSLRLSCAATGFTLSNYWMNWVRQAPGKGLEWVANINQDGSERYYVDSVKGRFTISRDNAKNSLYLQMNSLRAEDTAVYYCARGGEGYGVDHYGLDVSGQGTTVTVSS
notes: human single VH domain
B15: Humabody VH 1.111 (VHH)
VHH: EVQLVESGGGLVQPGGSLRLSCAASGFTLSNYWMNWVRQAPGKGLEWVANINQDGSERYYVDSVKGRFTISRDNAKNSLYLQMSSLRAEDTAVYYCARGGEGYGVDHYGLDVSGQGTTVTVSS
notes: human single VH domain
B16: Humabody VH 1.114 (VHH)
VHH: EVQLVESGGGLVQPGGSLRLSCAASGFTLSNYWMNWVRQAPGKGLEWVANINQDESERYYVDSVKGRFTISRDNAKNSLYLQMNSLRAEDTAVYYCARGGEGYGVDHYGLDVSGQGTTVTVSS
notes: human single VH domain

T2 sequence (Q07011 24-255 limits assumed): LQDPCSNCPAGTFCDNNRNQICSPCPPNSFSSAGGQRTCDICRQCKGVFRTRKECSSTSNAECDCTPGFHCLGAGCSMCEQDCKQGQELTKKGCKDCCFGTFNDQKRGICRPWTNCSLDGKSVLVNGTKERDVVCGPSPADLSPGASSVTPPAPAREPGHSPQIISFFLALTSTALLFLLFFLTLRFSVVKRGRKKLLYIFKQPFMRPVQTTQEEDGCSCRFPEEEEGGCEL

For the first assay, the target named is T1, human CD137-human Fc chimeric protein (Acro Biosystems cat no. 41B-H5258) (human, UniProt Q07011 24-186).
T1 construct: Bought protein; The Octet Protein G and Biacore experiments name no catalogue number; also called human CD137Fc recombinant protein; human CD137-Fc recombinant protein; not shown: human IgG1 Fc tag
Kind of assay: BLI (Octet RED384), CD137-Fc on Protein G sensors, 1:1 model. The procedure: Binding kinetics of purified VH, bivalent VH and trivalent VH molecules were measured on a ForteBio Octet RED 384 instrument. CD137-Fc tagged protein was diluted to 3 μg/ml in kinetics buffer (0.1% BSA, 0.02% Tween, 1×PBS) and coupled to Protein G biosensors (ForteBio cat no. 18-5082) via the Fc tag. VH were serially diluted (typically 1:2 dilution series starting with 50 nM, VH at the highest concentration) and binding to the CD137-Fc-coupled Protein G biosensors measured. Binding kinetics were determined from the (blank subtracted) sensor gram trace using 1:1 binding models and ForteBio Octet Data Analysis 9.0 software. Example kinetic and binding affinity data obtained is shown Table 10 (monovalent VH) and FIG. 1 (bivalent and trivalent molecules).
The molecule B1 registered a Kd of 1200 pM, a koff of 0.002 s⁻¹ and a kon of 1.64e+06 M⁻¹ s⁻¹.

B2 came in with a Kd of 2400 pM, a koff of 0.00145 s⁻¹ and a kon of 610000 M⁻¹ s⁻¹.

The molecule B3 yielded a dissociation constant Kd of 91 pM, a koff of 2.84e-05 s⁻¹ and a kon of 313000 M⁻¹ s⁻¹.

In the case of B4, the Kd came to 900 pM, the koff came to 0.000505 s⁻¹ and the kon is 559000 M⁻¹ s⁻¹.

The molecule B5 yielded a Kd of 2800 pM, a koff of 0.000596 s⁻¹ and a kon of 217000 M⁻¹ s⁻¹.

For B6, binding was put at a Kd of 750 pM, the koff turned out to be 0.000353 s⁻¹ and the kon worked out at 474000 M⁻¹ s⁻¹.

B7 returned a Kd of 160 pM, a koff of 0.000171 s⁻¹ and a kon of 1.06e+06 M⁻¹ s⁻¹.

A further assay addresses T2, human CD137 expressed on the surface of CHO cells (human, UniProt Q07011 24-255).
T2 construct: Also used for the Jurkat reporter cells that express human CD137 (functional rows); also called CHO human CD137 cells; CHO huCD137
Nature of the assay: FMAT ligand inhibition, CD137 Ligand on CHO human CD137 cells. The procedure:
In parallel to the binding assay, periplasmic extracts were tested for their ability to inhibit the interaction of human CD137 ligand protein with CHO human CD137 cells in an FMAT format. Total binding controls containing diluted periplasmic extract sample buffer and non-specific binding controls containing excess non-Fc tagged competitor were set up on each plate for data normalisation. Fluorescence signal was measured using the TTP Mirrorball and the FL2 median mean fluorescence intensity of gated used for the data normalisation. The data was expressed as a % of the total binding control (% control) after subtraction of the background signal determined from the non-specific binding control wells.
The ability of purified Humabody VH to inhibit the binding of CD137 Ligand to CHO human CD137 cells was measured in the FMAT ligand inhibition assay essentially as described in Example 6. VH inhibited the binding of human CD137 Ligand to human CD137.
With B8, the IC50 was determined as 2800 pM.

In turn, B1 showed an IC50 of 1700 pM.

For B9, half-maximal inhibition (IC50) required 200 pM.

Regarding B10, 280 pM corresponded to half-maximal inhibition (IC50).

In the case of B11, half-maximal inhibition (IC50) was put at 3700 pM.

Molecule B12 showed an IC50 of 420 pM.

Take B13: the IC50 was 430 pM.

The molecule B14 registered an IC50 of 470 pM.

In turn, B15 showed an IC50 of 750 pM.

Turning to B16, half-maximal inhibition (IC50) required 270 pM.
